In patent US10428140B2, “Anti-EphA4 antibody” (EISAI R&D MANAGEMENT CO., LTD., priority 2015, dated 2019):

Experiments:
Assay in all cases: Selectivity ELISA of humanized antibodies for human Eph receptor
Format in all cases: binding
Settings in all cases: coated protein 1 nM
SEAP-His = SEAP-His (Homo sapiens, UniProt P05187)
How it was run: (§1)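 Human Eph ECD-SEAP-His fusions, harvested after 5 days of Expi293F expression, are captured on anti-His-coated wells (1 nM final). Bound humanized antibody is detected with HRP anti-IgG and TMB at 450 nm.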

human EphA10 = molecular target: T1, human EphA10 (Homo sapiens, UniProt Q5JZY3)
T1 construct: a protein of the extracellular region of each human Eph receptor fused with the SEAP protein and the His tag; made in house; host or cells: Expi293F cells (culture supernatant)
T1 sequence (Q5JZY3 34-565 limits assumed): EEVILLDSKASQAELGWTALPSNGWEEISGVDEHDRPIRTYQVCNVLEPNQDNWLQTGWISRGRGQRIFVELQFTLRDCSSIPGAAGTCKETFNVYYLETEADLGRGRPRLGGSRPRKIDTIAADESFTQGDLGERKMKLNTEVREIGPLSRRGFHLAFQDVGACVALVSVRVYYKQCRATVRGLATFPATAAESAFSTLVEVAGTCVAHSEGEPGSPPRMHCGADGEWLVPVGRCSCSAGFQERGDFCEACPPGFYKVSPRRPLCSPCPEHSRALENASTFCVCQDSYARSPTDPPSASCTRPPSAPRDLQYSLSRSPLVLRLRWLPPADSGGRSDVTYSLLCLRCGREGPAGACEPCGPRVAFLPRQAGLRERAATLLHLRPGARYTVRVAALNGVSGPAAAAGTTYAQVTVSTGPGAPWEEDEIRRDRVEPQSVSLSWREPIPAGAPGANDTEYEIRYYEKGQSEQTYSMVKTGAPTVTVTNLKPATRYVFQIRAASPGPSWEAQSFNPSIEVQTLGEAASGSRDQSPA
How it was run: as §1

human EphB3 = molecular target: T2, human EphB3 (Homo sapiens, UniProt P54753)
T2 construct: a protein of the extracellular region of each human Eph receptor fused with the SEAP protein and the His tag; made in house; host or cells: Expi293F cells
T2 sequence (P54753 34-559 limits assumed): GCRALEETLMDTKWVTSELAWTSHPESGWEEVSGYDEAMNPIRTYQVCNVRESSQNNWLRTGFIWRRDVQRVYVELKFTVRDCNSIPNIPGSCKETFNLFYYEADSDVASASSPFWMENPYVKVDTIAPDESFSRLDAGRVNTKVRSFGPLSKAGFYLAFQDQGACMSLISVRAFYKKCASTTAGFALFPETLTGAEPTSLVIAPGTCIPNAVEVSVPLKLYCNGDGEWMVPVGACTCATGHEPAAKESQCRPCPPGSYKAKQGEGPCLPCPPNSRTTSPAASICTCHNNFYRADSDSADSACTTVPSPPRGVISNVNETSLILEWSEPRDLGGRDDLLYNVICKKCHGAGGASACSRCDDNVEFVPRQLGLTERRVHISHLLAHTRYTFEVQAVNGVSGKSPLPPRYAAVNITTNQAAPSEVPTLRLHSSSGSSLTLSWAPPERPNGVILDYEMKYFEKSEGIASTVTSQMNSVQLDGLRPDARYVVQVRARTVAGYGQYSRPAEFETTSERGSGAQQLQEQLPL
How it was run: as §1

Sequence of SEAP-His (P05187 23-511 limits assumed): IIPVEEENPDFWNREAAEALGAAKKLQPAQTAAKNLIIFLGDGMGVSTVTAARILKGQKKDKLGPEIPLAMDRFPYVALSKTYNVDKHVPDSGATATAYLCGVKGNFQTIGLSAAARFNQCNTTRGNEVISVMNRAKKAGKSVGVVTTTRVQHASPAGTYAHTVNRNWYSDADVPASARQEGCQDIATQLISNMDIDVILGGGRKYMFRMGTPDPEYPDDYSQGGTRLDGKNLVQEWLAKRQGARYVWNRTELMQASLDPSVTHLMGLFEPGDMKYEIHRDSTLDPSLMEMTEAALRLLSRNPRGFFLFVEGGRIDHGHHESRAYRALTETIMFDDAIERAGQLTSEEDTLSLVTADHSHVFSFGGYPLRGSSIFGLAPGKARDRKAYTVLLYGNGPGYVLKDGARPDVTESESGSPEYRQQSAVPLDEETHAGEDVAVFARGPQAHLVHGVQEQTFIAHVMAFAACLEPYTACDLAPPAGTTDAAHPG

| SEAP-His: absorbance at 450 nm, percentage with respect to hEphA4-SEAP-His as 100% (SEAP-His) [%] | hEphA10-SEAP-: absorbance at 450 nm, percentage with respect to hEphA4-SEAP-His as 100% (human EphA10) [%] | hEphB3-SEAP-: absorbance at 450 nm, percentage with respect to hEphA4-SEAP-His as 100% (human EphB3) [%] | Molecule |
| --- | --- | --- | --- |
| 6.1 | 5.8 | 6.3 | 88 (antibody, V domains shown, constant regions without entry; synthetic humanized antibody light chain variable region sequence; synthetic humanized antibody heavy chain variable region sequence) VL: DIQMTQSPSSLSASVGDRVTITCRASENIYRNLAWYQQKPGKAPQLLLYAATNLADGVPSRFSGSGSGTDYTLTISSLQPEDFATYYCQHFWGTPWTFGQGTKVEIK VH: QVQLVQSGSELKKPGASVKVSCKASGYTFTDYSMHWVRQAPGQGLKWMGWINTETGEPTYAQGFTGRFVFSLDTSVSTAYLQISSLKAEDTAVYYCARIPLYYYGSRYWYFDVWGQGTTVTVSS |
| 5.8 | 5.7 | 5.7 | 89 (antibody, V domains shown, constant regions without entry; synthetic humanized antibody light chain variable region sequence; synthetic humanized antibody heavy chain variable region sequence) VL: DIQMTQSPSSLSASVGDRVTITCRASENIYRNLAWYQQKPGKAPQLLLYAATNLADGVPSRFSGSGSGTDYTLTISSLQPEDFATYYCQHFWGTPWTFGQGTKVEIK VH: QIQLVQSGSELKKPGASVKVSCKASGYTFTDYSMHWVRQAPGQGLKWMGWINTETGEPTYAQGFTGRFVFSLDTSVSTAYLQISSLKAEDTAVYYCARIPLYYYGSRYWYFDVWGQGTTVTVSS |
| 5.2 | 5.1 | 5.1 | 90 (antibody, V domains shown, constant regions without entry; synthetic humanized antibody light chain variable region sequence; synthetic humanized antibody heavy chain variable region sequence) VL: DIQMTQSPSSLSASVGDRVTITCRASENIYRNLAWYQQKPGKAPQLLLYAATNLADGVPSRFSGSGSGTDYTLTISSLQPEDFATYYCQHFWGTPWTFGQGTKVEIK VH: QVQLVQSGSELKKPGASVKVSCKASGYTFTDYSMHWVRQAPGQGLEWMGWINTETGEPTYADDFKGRFVFSLDTSVSTAYLQISSLKAEDTAVYYCARIPLYYYGSRYWYFDVWGQGTTVTVSS |
| 6.4 | 8.5 | 7.0 | 91 (antibody, V domains shown, constant regions without entry; synthetic humanized antibody light chain variable region sequence; synthetic humanized antibody heavy chain variable region sequence) VL: DIQMTQSPSSLSASVGDRVTITCRASENIYRNLAWYQQKPGKAPQLLLYAATNLADGVPSRFSGSGSGTDYTLTISSLQPEDFATYYCQHFWGTPWTFGQGTKVEIK VH: QVQLVQSGSELKKPGASVKVSCKASGYTFTDYSMHWVRQAPGQGLKWMGWINTETGEPTYADDFKGRFVFSLDTSVSTAYLQISSLKAEDTAVYYCARIPLYYYGSRYWYFDVWGQGTTVTVSS |
| 6.5 | 6.6 | 6.9 | 92 (antibody, V domains shown, constant regions without entry; synthetic humanized antibody light chain variable region sequence; synthetic humanized antibody heavy chain variable region sequence) VL: DIQMTQSPSSLSASVGDRVTITCRASENIYRNLAWYQQKPGKAPQLLLYAATNLADGVPSRFSGSGSGTDYTLTISSLQPEDFATYYCQHFWGTPWTFGQGTKVEIK VH: QIQLVQSGSELKKPGASVKVSCKASGYTFTDYSMHWVRQAPGQGLKWMGWINTETGEPTYADDFKGRFVFSLDTSVSTAYLQISSLKAEDTAVYYCARIPLYYYGSRYWYFDVWGQGTTVTVSS |
| 5.0 | 4.9 | 5.1 | 93 (antibody, V domains shown, constant regions without entry; synthetic humanized antibody light chain variable region sequence; synthetic humanized antibody heavy chain variable region sequence) VL: EIVMTQSPATLSVSPGERATLSCRASENIYRNLAWYQQKPGQSPRLLIYAATNLADGIPARFSGSGSGTEYTLTISSLQSEDFAVYYCQHFWGTPWTFGQGTKVEIK VH: QVQLVQSGSELKKPGASVKVSCKASGYTFTDYSMHWVRQAPGQGLEWMGWINTETGEPTYAQGFTGRFVFSLDTSVSTAYLQISSLKAEDTAVYYCARIPLYYYGSRYWYFDVWGQGTTVTVSS |
| 6.7 | 6.4 | 6.7 | 94 (antibody, V domains shown, constant regions without entry; synthetic humanized antibody light chain variable region sequence; synthetic humanized antibody heavy chain variable region sequence) VL: EIVMTQSPATLSVSPGERATLSCRASENIYRNLAWYQQKPGQSPRLLIYAATNLADGIPARFSGSGSGTEYTLTISSLQSEDFAVYYCQHFWGTPWTFGQGTKVEIK VH: QVQLVQSGSELKKPGASVKVSCKASGYTFTDYSMHWVRQAPGQGLKWMGWINTETGEPTYAQGFTGRFVFSLDTSVSTAYLQISSLKAEDTAVYYCARIPLYYYGSRYWYFDVWGQGTTVTVSS |
| 5.6 | 5.3 | 5.5 | 71 (antibody, V domains shown, synthetic humanized antibody heavy chain variable region sequence; synthetic humanized antibody light chain variable region sequence) VH: QIQLVQSGSELKKPGASVKVSCKASGYTFTDYSMHWVRQAPGQGLKWMGWINTETGEPTYAQGFTGRFVFSLDTSVSTAYLQISSLKAEDTAVYYCARIPLYYYGSRYWYFDVWGQGTTVTVSS VL: EIVMTQSPATLSVSPGERATLSCRASENIYRNLAWYQQKPGQSPRLLIYAATNLADGIPARFSGSGSGTEYTLTISSLQSEDFAVYYCQHFWGTPWTFGQGTKVEIK |
| 4.4 | 4.5 | 4.6 | 95 (antibody, V domains shown, constant regions without entry; synthetic humanized antibody light chain variable region sequence; synthetic humanized antibody heavy chain variable region sequence) VL: EIVMTQSPATLSVSPGERATLSCRASENIYRNLAWYQQKPGQSPRLLIYAATNLADGIPARFSGSGSGTEYTLTISSLQSEDFAVYYCQHFWGTPWTFGQGTKVEIK VH: QVQLVQSGSELKKPGASVKVSCKASGYTFTDYSMHWVRQAPGQGLEWMGWINTETGEPTYADDFKGRFVFSLDTSVSTAYLQISSLKAEDTAVYYCARIPLYYYGSRYWYFDVWGQGTTVTVSS |
